Biological target: T1, His-SPOC domain (aa 782–977 of Rbm15) (human, UniProt Q96T37 782-977)
T1 construct: cloned in the pBAD/His vector; also called His-tagged Rbm15 SPOC domain; source: E. coli, purified (Ni-NTA agarose), dialyzed against PBS
T1 sequence (looked up): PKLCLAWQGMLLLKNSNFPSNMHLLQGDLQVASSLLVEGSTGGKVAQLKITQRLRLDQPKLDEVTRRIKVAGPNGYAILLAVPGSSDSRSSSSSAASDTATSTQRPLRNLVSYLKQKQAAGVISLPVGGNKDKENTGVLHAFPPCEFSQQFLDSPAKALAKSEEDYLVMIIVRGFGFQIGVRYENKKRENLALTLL
Assay: pull-down; GST pull-down of purified proteins on glutathione-agarose; 20 mM Tris-HCl pH 8.0, 150 mM NaCl, 2 mM EDTA, 0.2% NP-40, 0.5% deoxycholate; 2 h, then beads 1 h; Western blotting and Coomassie staining
Settings: both partners purified

binding result: binds
B1: GST-LSD (aa 542–628 of Setd1b) (domain or fragment, human, UniProt Q9UPS6 542-628, looked up)
chain: PLAPFGTNSQPGFRGPTPPSSRPSSTGLEDISPTPLPDSDEDEELDLGLGPRPPPEPGPPDPAGLLSQTAEVALDLVGDRTPTSEKM
notes: human Setd1b LSD domain, residues 542-628; cloned in the pGEX 4T vector; also called GST-Setd1b LSD domain; source: E. coli, purified
